The values that follow come from publication PMC10216364, “Structural Insight into the Mechanism of σ32-Mediated Transcription Initiation of Bacterial RNA Polymerase” (Biomolecules, 2023).

The target in series [1] is RNA polymerase core enzyme;chimera sigma32-28 (E. coli;E. coli) (UniProt P0A7Z4+P0A8V2+P0A8T7+P0A800+P0AGB3). Briefly: fluorescence polarization. The following applies: apparent Kd; FP: 10 mM Tris-HCl pH 7.7, 100 mM NaCl, 1 mM DTT, 1% glycerol, 0.025% Tween-20, 5 nM DNA, 10-320 nM holoenzyme, room temperature, 5 min; stopped-flow: 10 mM …. For orientation: In fluorescence polarisation assays a small probe gives low polarisation when free and higher when bound to something large.

For series [2], the target named is RNA polymerase core enzyme;chimera sigma32-38 (E. coli;E. coli) (UniProt P0A7Z4+P0A8V2+P0A8T7+P0A800+P0AGB3). Briefly: fluorescence polarization. The following applies: apparent Kd; FP: 10 mM Tris-HCl pH 7.7, 100 mM NaCl, 1 mM DTT, 1% glycerol, 0.025% Tween-20, 5 nM DNA, 10-320 nM holoenzyme, room temperature, 5 min; stopped-flow: 10 mM ….
The target of series [3] is RNA polymerase core enzyme;sigma32 (RpoH) wild type (E. coli;E. coli, UniProt P0A7Z4;P0A8V2;P0A8T7;P0A800;P0AGB3 1-329;1-1342;1-1407;1-91;1-284, |). The series can be described thus: fluorescence polarization; apparent Kd; FP: 10 mM Tris-HCl pH 7.7, 100 mM NaCl, 1 mM DTT, 1% glycerol, 0.025% Tween-20, 5 nM DNA, 10-320 nM holoenzyme, room temperature, 5 min; stopped-flow: 10 mM Tris-HCl pH 7.7, 20 mM NaCl, 10 mM MgCl2, 1 mM DTT. Conditions: protein: recombinant;recombinant, tags: ;His tag (pET28a, Ni-NTA), chain copies: 2;1;1;1;1.

Series [4] concerns the target RNA polymerase core enzyme;sigma32 R268A (E. coli;E. coli, UniProt P0A7Z4;P0A8V2;P0A8T7;P0A800;P0AGB3 1-329;1-1342;1-1407;1-91;1-284, |R268A). The series is described as above. Conditions: protein: recombinant;recombinant; tags: ;His tag (pET28a, Ni-NTA); chain copies: 2;1;1;1;1; blunt.
The target of series [5] is RNA polymerase core enzyme;sigma32 L253A (E. coli;E. coli, UniProt P0A7Z4;P0A8V2;P0A8T7;P0A800;P0AGB3 1-329;1-1342;1-1407;1-91;1-284, |L253A). Described as above. The following applies: protein: recombinant;recombinant; tags: ;His tag (pET28a, Ni-NTA); chain copies: 2;1;1;1;1; blunt.
The target in series [6] is RNA polymerase core enzyme;sigma32 E265A (E. coli;E. coli, UniProt P0A7Z4;P0A8V2;P0A8T7;P0A800;P0AGB3 1-329;1-1342;1-1407;1-91;1-284, |E265A). Described as above. Conditions: protein: recombinant;recombinant; tags: ;His tag (pET28a, Ni-NTA); chain copies: 2;1;1;1;1; blunt.
The target in series [7] is RNA polymerase core enzyme;sigma32 R266A (E. coli;E. coli, UniProt P0A7Z4;P0A8V2;P0A8T7;P0A800;P0AGB3 1-329;1-1342;1-1407;1-91;1-284, |R266A). Described as above. Conditions: protein: recombinant;recombinant; tags: ;His tag (pET28a, Ni-NTA); chain copies: 2;1;1;1;1; blunt.
The target in series [8] is T1, β′ subunit of E. coli RNAP (E. coli, UniProt P0A8T7 1-1407).
T1 construct: RNA polymerase subunit beta' (RpoC), E. coli; stood in the assay as a subunit of the RNAP core enzyme; A subunit of m2; also called RNAP-β′; RpoC; source: E. coli BL21(DE3), co-expressed from pET28a-rpoA-rpoB-rpoC-rpoZ, purified as part of the RNAP core enzyme
The series can be described thus: cryo-EM structure; σ32-RPo: RNAP core enzyme, σ32 and dnaKp1 promoter scaffold mixed at 1:4:1.2 molar ratios, 4 °C overnight, purified on Superdex 200; 20 mM Tris-HCl pH 8.0, 0.1 M NaCl, 1% glycerol, 1 mM DTT; promoter DNA present. The following applies: both partners purified.

The target in series [9] is T2, β subunit of E. coli RNAP (E. coli, UniProt P0A8V2 2-1342).
T2 construct: RNA polymerase subunit beta (RpoB), E. coli; stood in the assay as a subunit of the RNAP core enzyme; A subunit of m2; also called RpoB; bears the β-flap tip helix (βFTH); source: E. coli BL21(DE3), co-expressed from pET28a-rpoA-rpoB-rpoC-rpoZ, purified as part of the RNAP core enzyme
The description is as above. The following applies: both partners purified.

For “CCTTGAAGACGTGGTTTACGACCCCATTTAGTAG / GGGGTCGTAAACCACGTCTTCAAGG [long promoter DNA, -35 to -10 bubble]”, the Kd in [1] stood at 9.22 nM; in [2], 8.34 nM.

B1: long promoter DNA, -35 to -10 bubble (mixed)
DNA 1: CCTTGAAGACGTGGTTTACGACCCCATTTAGTAG
DNA 2: GGGGTCGTAAACCACGTCTTCAAGG
In the case of B1, the Kd in series [3] (25 bp duplex, 3' overhang 9 nt on S5 (fork-junction type)) came out at 14.9 nM.

B2: short -35 element DNA (dsDNA)
DNA 1: CCTTGAAGACGTGG
DNA 2: CCACGTCTTCAAGG
Take B2: the Kd in series [4] was 46.7 nM; in series [3] (blunt), 28.4 nM; in [5], 38.8 nM; in series [6], 45.9 nM; in series [7], 54.9 nM.

B3: E. coli σ^32 (natural protein)
chain: MTDKMQSLALAPVGNLDSYIRAANAWPMLSADEERALAEKLHYHGDLEAAKTLILSHLRFVVHIARNYAGYGLPQADLIQEGNIGLMKAVRRFNPEVGVRLVSFAVHWIKAEIHEYVLRNWRIVKVATTKAQRKLFFNLRKTKQRLGWFNQDEVEMVARELGVTSKDVREMESRMAAQDMTFDLSSDDDSDSQPMAPVLYLQDKSSNFADGIEDDNWEEQAANRLTDAMQGLDERSQDIIRARWLDEDNKSTLQELADRYGVSAERVRQLEKNAMKKLRAAIEA
notes: RNA polymerase sigma factor σ32 (RpoH), E. coli; the N-terminus was not modelled in the structure; the tag and its end are not described; also called sigma 32; RpoH; source: E. coli BL21(DE3), plasmid pET28a-rpoH, purified (Ni-NTA, HiTrap Heparin)
On to B3, for which the binding result in series [8] and in series [9] was “binds” in each case.
